Results from IntAct's records for PubMed 38288086.

B1: OTU domain-containing protein 3 (Homo sapiens), Q5T2D3 (parent)
chain: MSRKQAAKSRPGSGSRKAEAERKRDERAARRALAKERRNRPESGGGGGCEEEFVSFANQLQALGLKLREVPGDGNCLFRALGDQLEGHSRNHLKHRQETVDYMIKQREDFEPFVEDDIPFEKHVASLAKPGTFAGNDAIVAFARNHQLNVVIHQLNAPLWQIRGTEKSSVRELHIAYRYGEHYDSVRRINDNSEAPAHLQTDFQMLHQDESNKREKIKTKGMDSEDDLRDEVEDAVQKVCNATGCSDFNLIVQNLEAENYNIESAIIAVLRMNQGKRNNAEENLEPSGRVLKQCGPLWEEGGSGARIFGNQGLNEGRTENNKAQASPSEENKANKNQLAKVTNKQRREQQWMEKKKRQEERHRHKALESRGSHRDNNRSEAEANTQVTLVKTFAALNI
partner: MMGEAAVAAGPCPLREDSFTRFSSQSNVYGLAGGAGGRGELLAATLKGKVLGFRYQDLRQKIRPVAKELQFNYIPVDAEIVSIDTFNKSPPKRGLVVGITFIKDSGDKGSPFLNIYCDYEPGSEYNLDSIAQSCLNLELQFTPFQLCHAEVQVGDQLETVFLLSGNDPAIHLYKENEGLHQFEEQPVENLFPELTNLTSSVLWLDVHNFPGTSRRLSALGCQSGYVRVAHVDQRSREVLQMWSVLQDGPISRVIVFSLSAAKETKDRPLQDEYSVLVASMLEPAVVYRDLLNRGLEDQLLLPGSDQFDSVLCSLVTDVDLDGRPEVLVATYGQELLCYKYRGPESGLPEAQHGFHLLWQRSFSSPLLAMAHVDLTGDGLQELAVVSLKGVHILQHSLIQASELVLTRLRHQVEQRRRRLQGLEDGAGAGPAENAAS

Variants of: B1
Settings: with kptn_human KPTN

effect of a mutation on the interaction	Variant
with no effect	C76A
